Target: Mycoplasma hyopneumoniae enolase (Mhp Eno, MHP168_271) (Mycoplasma hyopneumoniae)
Test: crystal structure

Mycoplasma hyopneumoniae enolase (Mhp Eno, MHP168_271) (enzyme)
stoichiometry N: 8
